Results as given in US20090042235A1, “PHOTOREGULATED PEPTIDE, AND METHOD FOR REGULATION OF PEPTIDE-PROTEIN COMPLEX FORMATION USING THE PHOTOREGULATED PEPTIDE” (priority 2005, published 2009).
Bridge positions count the residues as written; N and C are the ends. Ends that are not written are not given here. DBMNB = photocleavable intramolecular cysteine cross-linker

Biological target: T1, PI3-Kα SH3 domain (Homo sapiens, UniProt P27986)
T1 construct: As a functional protein, an SH3 domain protein of PI3-Kα was used
T1 sequence (P27986 3-79 limits assumed): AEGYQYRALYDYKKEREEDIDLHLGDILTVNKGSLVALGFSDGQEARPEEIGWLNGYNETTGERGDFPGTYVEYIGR
Test: Circular dichroism (CD) differential spectra of peptide / PI3-Kα SH3 domain mixtures: photoregulation of peptide-protein complex formation
Type: binding
Experimental: As a functional protein, an SH3 domain protein of PI3-Kα was used. The PI3-Kα SH3 domain interacts with RLP1. The peptide having an intramolecular cross-linkage obtained in the manner as described above and the PI3-Kα SH3 domain were mixed in 10 mM phosphate buffer solution (pH 7.0), to obtain Mixture solution (I) in which the concentration of the peptide having an intramolecular cross-linkage was 100 microM and that of the PI3-Kα SH3 domain was 20 microM.
Then, Mixture solution (I) was irradiated with UV light. Irradiation was performed by using Minilite II manufactured by Continuum as a UV irradiator, with pulsed light at wavelength of 355 nm (third harmonic of Nd-YAG laser, pulse width 5 ns, 10 Hz, pulse intensity 4 mJ/cm^2) at 4° C. for 30 minutes. By UV irradiation, either one of the bonds between cysteine and DBMNB in the peptide having an intramolecular cross-linkage was cleaved. This was named Mixture solution (II).
Used sample solutions are shown below.
(i) Mixture solution (I) (ii) Mixture solution (II) (iii) Uncross-linked peptide RLP1 100 microM (10 mM phosphate buffer solution, pH 7.0) (iv) Peptide having an intramolecular cross-linkage (not irradiated with UV light) 100 microM (10 mM phosphate buffer solution, pH 7.0) (v) PI3-Kα SH3 domain 20 microM (10 mM phosphate buffer solution, pH 7.0) (vi) Mixture solution prepared by mixing an uncross-linked peptide RLP1 and a PI3-Kα SH3 domain in 10 mM phosphate buffer solution (pH 7.0), so that the concentration of the uncross-linked peptide is 100 microM and that of the PI3-Kα SH3 domain is 20 microM.
The horizontal axis of the graph represents wavelength of circularly polarized light (Wavelength/nm), and the vertical axis represents intensity of circular dichroism (Δθ/mdeg). In the graph of FIG. 7, “dark” represents different-al spectrum obtained by subtracting CD spectrum (iv) of the peptide having an intramolecular cross-linkage and CD spectrum (v) of the PI3-Kα SH3 domain from CD spectrum (i) of Mixture solution (I). Further, “light” represents differential spectrum obtained by subtracting CD spectrum (i) of Mixture solution (I) from CD spectrum (ii) of Mixture solution (II).

Substance	differential CD spectrum of mixture with PI3-Kα SH3 domain minus peptide and SH3 domain spectra (peak ascribable to formation of complex) (uncross-linked peptide 100 microM, SH3 domain 20 microM, 10 mM phosphate buffer pH 7.0, no irradiation)	interaction with specific recognizing site of the PI3-Kα SH3 domain (differential CD spectrum "dark") (Mixture solution (I), not irradiated, peptide 100 microM, SH3 domain 20 microM, 10 mM phosphate buffer pH 7.0, room temperature)	differential CD spectrum "light" (Mixture solution (II) minus Mixture solution (I)) (after UV irradiation 355 nm pulsed light, 4° C., 30 minutes, peptide 100 microM, SH3 domain 20 microM, pH 7.0)	complex formation with PI3-Kα SH3 domain (after UV irradiation (cyclic structure dissociated))
RKLPPRSK [RLP1, reference compound]	positive peak was observed around 220 nm			
peptide having an intramolecular cross-linkage: RLP1-2C (Cys Arg Lys Leu Pro Pro Arg Ser Lys Cys) intramolecularly cross-linked between its cysteines via photocleavable DBMNB, cyclic (CRKLPPRSKC; linker 1-10 via DBMNB)		no interaction	positive peak was observed around 220 nm	forms a complex
